The results in this text go back to the Human Domainome abundance scans (Beltran et al. 2025).

± gives the uncertainty stated by the source.

This data set is described as follows: abundance fitness (aPCA) (normalised: wild type 0, dead -1); higher = more abundant; growth selection in yeast, the domain comes from the species named. As to conditions: Homo sapiens.
“SAFB-like transcription modulator D64V, Q9NWH9” displayed an abundance fitness of -0.317 ± 0.045.

Regarding “SAFB-like transcription modulator D64W, Q9NWH9”, the abundance fitness is -0.068 ± 0.046.

In the case of “SAFB-like transcription modulator E33A, Q9NWH9”, the abundance fitness is -0.455 ± 0.068.

“SAFB-like transcription modulator E33C, Q9NWH9” returned an abundance fitness of -0.68 ± 0.1.

Regarding “SAFB-like transcription modulator E33D, Q9NWH9”, the abundance fitness was -0.916 ± 0.16.

“SAFB-like transcription modulator E33F, Q9NWH9”: the abundance fitness was -0.645 ± 0.049.

Regarding “SAFB-like transcription modulator E33G, Q9NWH9”, the abundance fitness is -0.974 ± 0.086.

Substance “SAFB-like transcription modulator E33H, Q9NWH9” showed an abundance fitness of -0.512 ± 0.13.

“SAFB-like transcription modulator E33K, Q9NWH9”: the abundance fitness is -0.89 ± 0.18.

The substance “SAFB-like transcription modulator E33L, Q9NWH9” displayed an abundance fitness of -0.123 ± 0.061.

“SAFB-like transcription modulator E33M, Q9NWH9” gave an abundance fitness of -0.007 ± 0.083.

Substance “SAFB-like transcription modulator E33N, Q9NWH9” registered an abundance fitness of -0.755 ± 0.1.

In turn, “SAFB-like transcription modulator E33P, Q9NWH9” registered an abundance fitness of -1.16 ± 0.2.

In turn, “SAFB-like transcription modulator E33Q, Q9NWH9” had an abundance fitness of -0.111 ± 0.079.

“SAFB-like transcription modulator E33R, Q9NWH9” registered an abundance fitness of -0.961 ± 0.077.

The substance “SAFB-like transcription modulator E33S, Q9NWH9” showed an abundance fitness of -0.353 ± 0.078.

Take “SAFB-like transcription modulator E33T, Q9NWH9”: the abundance fitness is -1.08 ± 0.17.

As to “SAFB-like transcription modulator E33V, Q9NWH9”, the abundance fitness is -0.917 ± 0.094.

The substance “SAFB-like transcription modulator E33W, Q9NWH9” displayed an abundance fitness of -0.871 ± 0.1.

“SAFB-like transcription modulator E57A, Q9NWH9”: the abundance fitness is -0.085 ± 0.082.

“SAFB-like transcription modulator E57C, Q9NWH9” yielded an abundance fitness of -0.192 ± 0.096.

Consider “SAFB-like transcription modulator E57D, Q9NWH9”, for which the abundance fitness is -0.164 ± 0.086.

Regarding “SAFB-like transcription modulator E57G, Q9NWH9”, the abundance fitness is -0.204 ± 0.044.

As to “SAFB-like transcription modulator E57H, Q9NWH9”, the abundance fitness was found to be 0.063 ± 0.16.

“SAFB-like transcription modulator E57I, Q9NWH9” displayed an abundance fitness of 0.048 ± 0.39.

In the case of “SAFB-like transcription modulator E57K, Q9NWH9”, the abundance fitness was -0.159 ± 0.11.

Turning to “SAFB-like transcription modulator E57L, Q9NWH9”, the abundance fitness was -0.049 ± 0.071.

On to “SAFB-like transcription modulator E57M, Q9NWH9”, for which the abundance fitness is -0.164 ± 0.094.

In turn, “SAFB-like transcription modulator E57Q, Q9NWH9” displayed an abundance fitness of -0.667 ± 0.25.

The substance “SAFB-like transcription modulator E57R, Q9NWH9” had an abundance fitness of 0.034 ± 0.06.

“SAFB-like transcription modulator E57S, Q9NWH9” yielded an abundance fitness of -0.031 ± 0.056.

“SAFB-like transcription modulator E57T, Q9NWH9” came in with an abundance fitness of -0.122 ± 0.079.

As to “SAFB-like transcription modulator E57V, Q9NWH9”, the abundance fitness is -0.064 ± 0.063.

On to “SAFB-like transcription modulator E57W, Q9NWH9”, for which the abundance fitness was -0.124 ± 0.059.

As for “SAFB-like transcription modulator E57Y, Q9NWH9”, the abundance fitness is -0.319 ± 0.11.

“SAFB-like transcription modulator E58A, Q9NWH9”: the abundance fitness was -0.026 ± 0.06.

Substance “SAFB-like transcription modulator E58C, Q9NWH9” returned an abundance fitness of -0.113 ± 0.064.

“SAFB-like transcription modulator E58D, Q9NWH9”: the abundance fitness is -0.444 ± 0.15.

Take “SAFB-like transcription modulator E58F, Q9NWH9”: the abundance fitness was -0.105 ± 0.054.

Turning to “SAFB-like transcription modulator E58G, Q9NWH9”, the abundance fitness is -0.021 ± 0.051.

“SAFB-like transcription modulator E58H, Q9NWH9”: the abundance fitness was 0.147 ± 0.084.

Consider “SAFB-like transcription modulator E58K, Q9NWH9”, for which the abundance fitness was -0.134 ± 0.084.

Consider “SAFB-like transcription modulator E58L, Q9NWH9”, for which the abundance fitness was -0.036 ± 0.036.

“SAFB-like transcription modulator E58M, Q9NWH9” had an abundance fitness of 0.008 ± 0.071.

For the substance “SAFB-like transcription modulator E58N, Q9NWH9”, the abundance fitness is -0.068 ± 0.077.

“SAFB-like transcription modulator E58P, Q9NWH9” showed an abundance fitness of -0.867 ± 0.12.

As to “SAFB-like transcription modulator E58Q, Q9NWH9”, the abundance fitness is -0.014 ± 0.077.

“SAFB-like transcription modulator E58R, Q9NWH9” displayed an abundance fitness of 0.028 ± 0.034.

As to “SAFB-like transcription modulator E58S, Q9NWH9”, the abundance fitness came to 0.024 ± 0.053.

“SAFB-like transcription modulator E58T, Q9NWH9”: the abundance fitness is -0.043 ± 0.067.

As to “SAFB-like transcription modulator E58V, Q9NWH9”, the abundance fitness is -0.074 ± 0.06.

In turn, “SAFB-like transcription modulator E58W, Q9NWH9” gave an abundance fitness of -0.52 ± 0.076.

In turn, “SAFB-like transcription modulator E58Y, Q9NWH9” yielded an abundance fitness of -0.342 ± 0.076.

As for “SAFB-like transcription modulator E59C, Q9NWH9”, the abundance fitness is -0.404 ± 0.037.

Take “SAFB-like transcription modulator E59D, Q9NWH9”: the abundance fitness is -0.225 ± 0.087.

On to “SAFB-like transcription modulator E59F, Q9NWH9”, for which the abundance fitness was -0.924 ± 0.07.

With “SAFB-like transcription modulator E59G, Q9NWH9”, the abundance fitness is -0.226 ± 0.044.

With “SAFB-like transcription modulator E59I, Q9NWH9”, the abundance fitness is -0.784 ± 0.1.

“SAFB-like transcription modulator E59K, Q9NWH9” displayed an abundance fitness of -0.653 ± 0.13.

Turning to “SAFB-like transcription modulator E59L, Q9NWH9”, the abundance fitness is -0.794 ± 0.041.

In turn, “SAFB-like transcription modulator E59N, Q9NWH9” gave an abundance fitness of -0.275 ± 0.056.

In turn, “SAFB-like transcription modulator E59P, Q9NWH9” registered an abundance fitness of -0.768 ± 0.05.

On to “SAFB-like transcription modulator E59Q, Q9NWH9”, for which the abundance fitness was -0.336 ± 0.078.

Consider “SAFB-like transcription modulator E59R, Q9NWH9”, for which the abundance fitness was -0.532 ± 0.054.

Substance “SAFB-like transcription modulator E59T, Q9NWH9” had an abundance fitness of -0.323 ± 0.073.

For the substance “SAFB-like transcription modulator E59V, Q9NWH9”, the abundance fitness is -0.459 ± 0.052.

Take “SAFB-like transcription modulator E59W, Q9NWH9”: the abundance fitness is -1.02 ± 0.089.

As for “SAFB-like transcription modulator E67A, Q9NWH9”, the abundance fitness was -0.197 ± 0.046.

Consider “SAFB-like transcription modulator E67C, Q9NWH9”, for which the abundance fitness was -0.252 ± 0.087.

In the case of “SAFB-like transcription modulator E67D, Q9NWH9”, the abundance fitness is -0.107 ± 0.086.

“SAFB-like transcription modulator E67F, Q9NWH9” showed an abundance fitness of -0.041 ± 0.078.

Take “SAFB-like transcription modulator E67G, Q9NWH9”: the abundance fitness is -0.198 ± 0.049.

As to “SAFB-like transcription modulator E67H, Q9NWH9”, the abundance fitness was -0.107 ± 0.15.

The substance “SAFB-like transcription modulator E67I, Q9NWH9” yielded an abundance fitness of 0.017 ± 0.08.

As for “SAFB-like transcription modulator E67K, Q9NWH9”, the abundance fitness is -0.225 ± 0.082.

On to “SAFB-like transcription modulator E67L, Q9NWH9”, for which the abundance fitness is -0.134 ± 0.035.

Consider “SAFB-like transcription modulator E67M, Q9NWH9”, for which the abundance fitness is -0.308 ± 0.092.

Turning to “SAFB-like transcription modulator E67N, Q9NWH9”, the abundance fitness was -0.002 ± 0.069.

Take “SAFB-like transcription modulator E67P, Q9NWH9”: the abundance fitness is -0.155 ± 0.089.

“SAFB-like transcription modulator E67Q, Q9NWH9”: the abundance fitness was -0.35 ± 0.1.

In turn, “SAFB-like transcription modulator E67S, Q9NWH9” registered an abundance fitness of -0.084 ± 0.04.

The substance “SAFB-like transcription modulator E67T, Q9NWH9” yielded an abundance fitness of -0.099 ± 0.049.

Regarding “SAFB-like transcription modulator E67V, Q9NWH9”, the abundance fitness was -0.042 ± 0.037.

“SAFB-like transcription modulator E67W, Q9NWH9” displayed an abundance fitness of -0.27 ± 0.037.

Turning to “SAFB-like transcription modulator E67Y, Q9NWH9”, the abundance fitness was -0.019 ± 0.11.

Consider “SAFB-like transcription modulator G19A, Q9NWH9”, for which the abundance fitness was -0.101 ± 0.09.

“SAFB-like transcription modulator G19C, Q9NWH9” came in with an abundance fitness of -0.391 ± 0.19.

Regarding “SAFB-like transcription modulator G19D, Q9NWH9”, the abundance fitness was -0.027 ± 0.078.

“SAFB-like transcription modulator G19E, Q9NWH9” returned an abundance fitness of -0.014 ± 0.086.

Turning to “SAFB-like transcription modulator G19I, Q9NWH9”, the abundance fitness stood at 0.503 ± 0.23.

Substance “SAFB-like transcription modulator G19R, Q9NWH9” had an abundance fitness of -0.757 ± 0.2.
